# Several values for one entry are separate records, joined by “and”; a condition that tells them apart may be missing. Equal entries are not always repeated.
# B1: BIIB65H09 Fab (Fab, V domains shown)
# VH: EVQLLESGGGLVQPGGSLRLSCAASGFTFSWYSMWWVRQAPGKGLEWVSSIVSSGGQTRYADSVKGRFTISRDNSKNTLYLQMNSLRAEDTAVYYCARVKGYYYYIDVWGKGTTVTVSS
# VL: DIQMTQSPGTLSLSPGERATLSCRASQSVDSSYLSWYQQKPGQAPRLLIYGASTRATGIPARFSGSGSGTDFTLTVSRLEPEDFAVYYCQQHGYSSRTFGQGTKVEIK
# notes: Soluble human Fab from a phagemid Fab library
# B2: BIIB66A12 Fab (Fab, V domains shown)
# VH: EVQLLESGGGLVQPGGSLRLSCAASGFTFSMYSMQWVRQAPGKGLEWVSVIGSSGGQTGYADSVKGRFTISRDNSKNTLYLQMNSLRAEDTAVYYCARVRDYYGSGSYYLDPWGQGTLVTVSS
# VL: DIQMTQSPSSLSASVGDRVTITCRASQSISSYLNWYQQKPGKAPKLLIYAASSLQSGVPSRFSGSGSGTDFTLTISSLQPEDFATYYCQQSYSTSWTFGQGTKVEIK
# notes: as for B1
# B3: BIIB65B03 Fab (Fab, V domains shown)
# VH: EVQLLESGGGLVQPGGSLRLSCAASGFTFSWYRMNWVRQAPGKGLEWVSSIYSSGGPTNYADSVKGRFTISRDNSQNTLYLQMNSLRAEDTAVYYCTREKPDYYDSSGYLDYWGQGTLVTVSS
# VL: DIQMTQSPGTLSLSPGERSTLSCRASQSVSSSYLAWYQQKPGQAPRLLIYGASSRATGIPDRFSGSGSGTDFTLTISRLEPEDFGVYYCHQYGRPPVFGPGTKVDIK
# notes: as for B1
# B4: BIIB66C01 Fab (Fab, V domains shown)
# VH: EVQLLESGGGLVQPGGSLRLSCAASGFTFSWYSMSWVRQAPGKGLEWVSSISSSGGPTHYADSVKGRFTISRDNSKNTLYLQMNSLRAEDTAVYYCARDSSYSGTSWGQGTLVTVSS
# VL: QYELTQPPSVSGTPGQRVTISCSGSSSNIGSEYVYWFQQLPGTAPRLLIYRNDQRPSGVPDRFSGSKSGTSASLAISGLRSEDETDYYCTTWDDSLSGPVFGGGTKLTVL
# notes: as for B1
# B5: BIIB71F10 Fab (Fab, V domains shown)
# VH: EVQLLESGGGLVQPGGSLRLSCAASGFTFSSYGMVWVRQAPGKGLEWVSSISSSGGLTWYADSVKGRFTISRDNSKNTLYLQMNSLRAEDTAVYYCASPPGIAVARDYWGQGTLVTVSS
# VL: DIQMTQSPSSLSASVGDRVTITCRASQGISNYLAWYQQKPGKVPKLLIYAASTLQSGVPSRFSGSGSGTDFTLTISSLQPEDVATYYCQKYNSALLTFGGGTKVEIK
# notes: Soluble human Fab; also called Fab 71F10
# B6: BIIB65C10 Fab (Fab, V domains shown)
# VH: EVQLLESGGGLVQPGGSLRLSCAASGFTFSYYPMMWVRQAPGKGLEWVSSIWPSGGFTKYADSVKGRFTISRDNSKNTLYLQMNSLRAEDTATYYCARVSSSSWYGYLYWGQGTLVTVSS
# VL: not shown
# notes: as for B1
# B7: 71F10 Fab-hLIGHT fusion with the (G4S)4 linker (BIIB71F10-132) (other)
# heavy: EVQLLESGGGLVQPGGSLRLSCAASGFTFSSYGMVWVRQAPGKGLEWVSSISSSGGLTWYADSVKGRFTISRDNSKNTLYLQMNSLRAEDTAVYYCASPPGIAVARDYWGQGTLVTVSSASTKGPSVFPLAPSSKSTSGGTAALGCLVKDYFPEPVTVSWNSGALTSGVHTFPAVLQSSGLYSLSSVVTVPSSSLGTQTYICNVNHKPSNTKVDKKVEPKSCDKGGGGSGGGGSGGGGSGGGGSNPAAHLTGANSSLTGSGGPLLWETQLGLAFLRGLSYHDGALVVTKAGYYYIYSKVQLGGVGCPLGLASTITHGLYKRTPRYPEELELLVSQQSPCGRATSSSRVWWDSSFLGGVVHLEAGEEVVVRVLDERLVRLRDGTRSYFGAFMV
# light: DIQMTQSPSSLSASVGDRVTITCRASQGISNYLAWYQQKPGKVPKLLIYAASTLQSGVPSRFSGSGSGTDFTLTISSLQPEDVATYYCQKYNSALLTFGGGTKVEIKRTVAAPSVFIFPPSDEQLKSGTASVVCLLNNFYPREAKVQWKVDNALQSGNSQESVTEQDSKDSTYSLSSTLTLSKADYEKHKVYACEVTHQGLSSPVTKSFNRGEC
# notes: Fab heavy chain fused to human LIGHT extracellular portion; assembles as a trimer; also called 71F10 Fab-(G4S)4-LIGHT
# Biological target: T1, D1-D2 Her2-Fc
# T1 construct: also called MR067; ErbB2-Fc Domains 1-2; not shown: huIgG1-Fc part
# T1 chain: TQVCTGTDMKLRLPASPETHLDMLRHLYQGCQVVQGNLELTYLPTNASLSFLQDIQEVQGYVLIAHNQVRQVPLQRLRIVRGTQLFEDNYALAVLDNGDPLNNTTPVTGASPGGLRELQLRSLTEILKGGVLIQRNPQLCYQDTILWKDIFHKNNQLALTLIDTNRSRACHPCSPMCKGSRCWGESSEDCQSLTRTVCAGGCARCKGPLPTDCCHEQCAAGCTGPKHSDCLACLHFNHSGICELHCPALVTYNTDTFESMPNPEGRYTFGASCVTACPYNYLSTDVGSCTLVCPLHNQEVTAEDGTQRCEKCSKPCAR
# Assay: ELISA, HER2 domain-Fc captured on anti-huFc, detection HRP-anti-fab
# Description: (§1) Nunc Maxisorp ELISA plates were coated with 5 ug/ml rabbit pAbs anti-human Fc gamma in PBS overnight at 4 degrees. Plates were washed one time with PBST (PBS, 0.05% tween 20) and blocked with 1% BSA in PBS for one hour at room temperature. Plates were washed one time with PBST and incubated with 1 ug/ml HER2-Fc fusion protein for one hour. Plates were washed three times with PBST and dilutions of Fab (four 5-fold serial dilutions, starting at 1 ug/ml) in block were added and incubated for ninety minutes. Plates were washed three times with PBST and incubated with 1:2,000 HRP-labelled goat anti-human kappa (Southern Biotech cat#2060-05) and HRP-labelled goat anti-human lambda (Southern Biotech cat#2070-05) in block for one hour at room temperature. Plates were washed three times with PBST, developed with TMB solution for 5 minutes, and stopped with equal volume 1 NH₂SO₄. Absorbance values were read at 450 nm.
row,Binder,binding result
1,B1,"no binding (tested: 1 ug/ml (from paragraph 380, not on the sheet))"
2,B2,"no binding (tested: 1 ug/ml (from paragraph 380, not on the sheet))"
3,B3,"no binding (tested: 1 ug/ml (from paragraph 380, not on the sheet))"
4,B4,"no binding (tested: 1 ug/ml (from paragraph 380, not on the sheet))"

# Biological target: T2, D1 Her2-Fc
# T2 construct: also called MR066; ErbB2-Fc Domain 1; not shown: huIgG1-Fc part
# T2 chain: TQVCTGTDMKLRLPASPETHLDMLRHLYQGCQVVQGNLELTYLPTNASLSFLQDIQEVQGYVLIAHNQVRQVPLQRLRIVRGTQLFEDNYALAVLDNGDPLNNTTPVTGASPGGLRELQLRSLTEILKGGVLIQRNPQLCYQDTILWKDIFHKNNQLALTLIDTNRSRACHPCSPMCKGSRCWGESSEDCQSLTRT
# Assay: as above
# Description: as §1
row,Binder,binding result
1,B1,"no binding (tested: 1 ug/ml (from paragraph 380, not on the sheet))"
2,B2,"no binding (tested: 1 ug/ml (from paragraph 380, not on the sheet))"
3,B3,"no binding (tested: 1 ug/ml (from paragraph 380, not on the sheet))"
4,B5,"no binding (tested: 1 ug/ml (from paragraph 380, not on the sheet))"
5,B4,"no binding (tested: 1 ug/ml (from paragraph 380, not on the sheet))"
6,B6,"no binding (tested: 1 ug/ml (from paragraph 380, not on the sheet))"

# Biological target: Soluble human LTBR (shuLTBR) (human, UniProt P36941 31-227, limits assumed)
# Assay: SEC / light scattering
# Description: Soluble human LTBR (shuLTBR) was prepared by limited proteolytic digestion of human LTBR-Ig and purified by chromatography on protein A Sepharose and Fractogel TMAE. […] Controls with each protein were also included. The samples were analyzed by SEC using a […] column (Phenomenex) in PBS with a Waters Alliance HPLC instrument.
# Chain of Soluble human LTBR (shuLTBR) (P36941 31-227 limits assumed): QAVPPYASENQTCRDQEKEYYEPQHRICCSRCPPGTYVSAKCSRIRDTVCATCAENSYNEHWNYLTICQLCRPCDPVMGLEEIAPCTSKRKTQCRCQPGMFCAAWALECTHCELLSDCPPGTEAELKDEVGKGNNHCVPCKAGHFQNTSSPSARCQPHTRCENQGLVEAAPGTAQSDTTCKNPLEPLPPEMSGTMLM
row,Binder,stoichiometry (shuLTBR per Fab-Light trimer)
1,B7,2 shuLTBR per trimer and 3 shuLTBR per trimer

# Reference: patent publication US20100119511A1 (Biogen, published 2010)
